From patent publication US20030232013A1, “Therapeutic and diagnostic targeting of cancers cells with tumor homing peptides” (priority 2002, published 2003)
Where two headings read alike, the source gives them in different places. Bridge positions count the residues as written; N and C are the ends. Peptide text beside a SMILES is read from it. * marks the point of attachment. DOTA = O=C(O)CN1CCN(CC(=O)O)CCN(CC(=O)*)CCN(CC(=O)O)CC1; Ahx = NCCCCCC(=O)O

Assay: In vivo biodistribution in MB-231 tumor bearing SCID mice
Details: female, ICR SCID, mouse, iv, total radioactivity; for tissue uptake at 1 h / dose excreted at 1 h: 1 hour post-injection; for tissue uptake at 24 h / dose excreted at 24 h: 24 hours post-injection
Description: In vivo iodistribution studies. Four- to 5-week old female ICR SCID ([…]) outbred mice were obtained from Taconic (Germantown, N.Y.). The mice were housed five animals per cage in sterile micro isolator cages in a temperature- and humidity-controlled room with a 12-hour light/12-hour dark schedule. The animals were fed autoclaved rodent chow (Ralston Purina Company, St. Louis, Mo.) and water ad libitum. Animals were housed one week prior to inoculation of tumor cells and anesthetized for injections with isoflurane (Baxter Healthcare Corp., Deerfield, Ill.) at a rate of 2.5% with 0.4L oxygen through a non-rebreathing anesthesia vaporizer.
Human breast cancer MB231 and T47D cells were injected on the bilateral subcutaneous (s.c.) flank with ˜5×10^6 cells in a suspension of 100 μl normal sterile saline per injection site. MB231 and T47D cells were allowed to grow in vivo two to three weeks post inoculation developing tumors ranging in sizes from 0.02-1.30 grams. The biodistribution and uptake of ^111In-DOTA-Phe^19-STh or ^111In-DOTA-6-Ahx-Phe^19-STh in tumor bearing SCID mice was studied. The mice (average weight, 25 g) were injected with aliquots (50-100 μl) of the radiolabeled peptide solution (55-75 kBq) in each animal via the tail vein. Tissues, organs and tumors were excised from the animals sacrificed at 1 hr, 4 hrs and 24 hrs p.i. For blocking studies, an access of non-radioactive 6-Ahx-Phe^19-STh (100 μg) was also injected along with the radiolabeled peptide solution. The radioactivity was measured in a NaI counter and the percent-injected dose per organ and the percent-injected dose per gram tissue were calculated (Tables 5 and 6). Animal studies were conducted in accordance with the highest standards of care as outlined in the NIH guide for Care and Use of Laboratory Animals and the Policy and Procedures for Animal Research at the Harry S. Truman Memorial VA Hospital and according to approved protocols.

## CC(C)C[C@@H]1NC(=O)[C@H](CCC(=O)O)NC(=O)[C@@H]2CSSC[C@@H]3NC(=O)[C@H](C)NC(=O)[C@@H]4CCCN4C(=O)[C@H](CC(N)=O)NC(=O)[C@H](CSSC[C@H](NC(=O)[C@H](Cc4ccc(O)cc4)NC(=O)[C@H](CC(N)=O)NC(=O)[C@H](CO)NC(=O)[C@H](CO)NC(=O)[C@H](CC(N)=O)NC(=O)CCCCCNC(=O)CN4CCN(CC(=O)O)CCN(CC(=O)O)CCN(CC(=O)O)CC4)C(=O)N2)NC(=O)[C@H](CSSC[C@@H](C(=O)N[C@@H](Cc2ccccc2)C(=O)O)NC(=O)CNC(=O)[C@H]([C@@H](C)O)NC3=O)NC1=O [^111In-DOTA-6-Ahx-Phe^19-STh, metal not drawn] ({DOTA-Ahx}-NSSNYCCELCCNPACTGCF-OH; disulfide 6-11, 7-15, 10-18)
MB-231 tumor, MB-231 tumor, Blocking (100 μg non-radioactive 6-Ahx-Phe^19-STh co-injected), n = 4, read-out: biodistribution, Tumor
  tissue uptake at 1 h: 0.84 ± 0.3 %ID/g
MB-231 tumor, MB-231 tumor, n = 5, read-out: biodistribution, Tumor
  tissue uptake at 1 h: 0.7 ± 0.16 %ID/g
MB-231 tumor, MB-231 tumor, 4 hours post-injection, n = 5, read-out: biodistribution, Tumor
  tissue uptake at 4 h: 0.24 ± 0.12 %ID/g
MB-231 tumor, MB-231 tumor, n = 4, read-out: biodistribution, Tumor
  tissue uptake at 24 h: 0.13 ± 0.16 %ID/g
blood, Blocking (100 μg non-radioactive 6-Ahx-Phe^19-STh co-injected), n = 4, read-out: biodistribution, Blood
  tissue uptake at 1 h: 0.85 ± 0.31 %ID/g
blood, n = 5, read-out: biodistribution, Blood
  tissue uptake at 1 h: 0.57 ± 0.13 %ID/g
blood, 4 hours post-injection, n = 5, read-out: biodistribution, Blood
  tissue uptake at 4 h: 0.04 ± 0.05 %ID/g
blood, n = 4, read-out: biodistribution, Blood
  tissue uptake at 24 h: 0.01 ± 0.02 %ID/g
faeces, n = 4, read-out: biodistribution, Feces (Avg % ID)
  dose excreted at 24 h: 14.2 ± 17.3%
heart, Blocking (100 μg non-radioactive 6-Ahx-Phe^19-STh co-injected), n = 4, read-out: biodistribution, Heart
  tissue uptake at 1 h: 0.24 ± 0.11 %ID/g
heart, n = 5, read-out: biodistribution, Heart
  tissue uptake at 1 h: 0.14 ± 0.03 %ID/g
heart, 4 hours post-injection, n = 5, read-out: biodistribution, Heart
  tissue uptake at 4 h: 0.06 ± 0.06 %ID/g
heart, n = 4, read-out: biodistribution, Heart
  tissue uptake at 24 h: 0.03 ± 0.03 %ID/g
kidney, Blocking (100 μg non-radioactive 6-Ahx-Phe^19-STh co-injected), n = 4, read-out: biodistribution, Kidney
  tissue uptake at 1 h: 12.8 ± 2.01 %ID/g
kidney, n = 5, read-out: biodistribution, Kidney
  tissue uptake at 1 h: 4.98 ± 0.67 %ID/g
kidney, 4 hours post-injection, n = 5, read-out: biodistribution, Kidney
  tissue uptake at 4 h: 4.96 ± 0.5 %ID/g
kidney, n = 4, read-out: biodistribution, Kidney
  tissue uptake at 24 h: 2.94 ± 0.42 %ID/g
Large intestine, Blocking (100 μg non-radioactive 6-Ahx-Phe^19-STh co-injected), n = 4, read-out: biodistribution, Large Intestine
  tissue uptake at 1 h: 0.17 ± 0.03 %ID/g
Large intestine, n = 5, read-out: biodistribution, Large Intestine
  tissue uptake at 1 h: 0.37 ± 0.05 %ID/g
Large intestine, 4 hours post-injection, n = 5, read-out: biodistribution, Large Intestine
  tissue uptake at 4 h: 0.66 ± 0.52 %ID/g
Large intestine, n = 4, read-out: biodistribution, Large Intestine
  tissue uptake at 24 h: 1.5 ± 2.59 %ID/g
liver, Blocking (100 μg non-radioactive 6-Ahx-Phe^19-STh co-injected), n = 4, read-out: biodistribution, Liver
  tissue uptake at 1 h: 0.33 ± 0.06 %ID/g
liver, n = 5, read-out: biodistribution, Liver
  tissue uptake at 1 h: 0.2 ± 0.03 %ID/g
liver, 4 hours post-injection, n = 5, read-out: biodistribution, Liver
  tissue uptake at 4 h: 0.09 ± 0.02 %ID/g
liver, n = 4, read-out: biodistribution, Liver
  tissue uptake at 24 h: 0.05 ± 0.02 %ID/g
lung, Blocking (100 μg non-radioactive 6-Ahx-Phe^19-STh co-injected), n = 4, read-out: biodistribution, Lung
  tissue uptake at 1 h: 0.49 ± 0.12 %ID/g
lung, n = 5, read-out: biodistribution, Lung
  tissue uptake at 1 h: 0.31 ± 0.04 %ID/g
lung, 4 hours post-injection, n = 5, read-out: biodistribution, Lung
  tissue uptake at 4 h: 0.08 ± 0.05 %ID/g
lung, n = 4, read-out: biodistribution, Lung
  tissue uptake at 24 h: 0.01 ± 0.02 %ID/g
muscle, Blocking (100 μg non-radioactive 6-Ahx-Phe^19-STh co-injected), n = 4, read-out: biodistribution, Muscle
  tissue uptake at 1 h: 0.1 ± 0.08 %ID/g
muscle, n = 5, read-out: biodistribution, Muscle
  tissue uptake at 1 h: 0.1 ± 0.08 %ID/g
muscle, 4 hours post-injection, n = 5, read-out: biodistribution, Muscle
  tissue uptake at 4 h: 0.04 ± 0.05 %ID/g
muscle, n = 4, read-out: biodistribution, Muscle
  tissue uptake at 24 h: 0.02 ± 0.04 %ID/g
pancreas, Blocking (100 μg non-radioactive 6-Ahx-Phe^19-STh co-injected), n = 4, read-out: biodistribution, Pancreas
  tissue uptake at 1 h: 0.21 ± 0.04 %ID/g
pancreas, n = 5, read-out: biodistribution, Pancreas
  tissue uptake at 1 h: 0.13 ± 0.03 %ID/g
pancreas, 4 hours post-injection, n = 5, read-out: biodistribution, Pancreas
  tissue uptake at 4 h: 0.05 ± 0.02 %ID/g
pancreas, n = 4, read-out: biodistribution, Pancreas
  tissue uptake at 24 h: 0.03 ± 0.02 %ID/g
Small intestine, Blocking (100 μg non-radioactive 6-Ahx-Phe^19-STh co-injected), n = 4, read-out: biodistribution, Small Intestine
  tissue uptake at 1 h: 0.85 ± 1.19 %ID/g
Small intestine, n = 5, read-out: biodistribution, Small Intestine
  tissue uptake at 1 h: 0.99 ± 0.18 %ID/g
Small intestine, 4 hours post-injection, n = 5, read-out: biodistribution, Small Intestine
  tissue uptake at 4 h: 0.28 ± 0.07 %ID/g
Small intestine, n = 4, read-out: biodistribution, Small Intestine
  tissue uptake at 24 h: 0.21 ± 0.13 %ID/g
spleen, Blocking (100 μg non-radioactive 6-Ahx-Phe^19-STh co-injected), n = 4, read-out: biodistribution, Spleen
  tissue uptake at 1 h: 0.12 ± 0.14 %ID/g
spleen, n = 5, read-out: biodistribution, Spleen
  tissue uptake at 1 h: 0.15 ± 0.1 %ID/g
spleen, 4 hours post-injection, n = 5, read-out: biodistribution, Spleen
  tissue uptake at 4 h: 0.05 ± 0.05 %ID/g
spleen, n = 4, read-out: biodistribution, Spleen
  tissue uptake at 24 h: 0.02 ± 0.04 %ID/g
stomach, Blocking (100 μg non-radioactive 6-Ahx-Phe^19-STh co-injected), n = 4, read-out: biodistribution, Stomach
  tissue uptake at 1 h: 2.18 ± 3.69 %ID/g
stomach, n = 5, read-out: biodistribution, Stomach
  tissue uptake at 1 h: 0.31 ± 0.33 %ID/g
stomach, 4 hours post-injection, n = 5, read-out: biodistribution, Stomach
  tissue uptake at 4 h: 0.03 ± 0.01 %ID/g
stomach, n = 4, read-out: biodistribution, Stomach
  tissue uptake at 24 h: 0.09 ± 0.09 %ID/g
urine, Blocking (100 μg non-radioactive 6-Ahx-Phe^19-STh co-injected), n = 4, read-out: biodistribution, Urine (Avg % ID)
  dose excreted at 1 h: 87.4 ± 4.5%
urine, n = 5, read-out: biodistribution, Urine (Avg % ID)
  dose excreted at 1 h: 89.4 ± 2.9%
urine, 4 hours post-injection, n = 5, read-out: biodistribution, Urine (Avg % ID)
  dose excreted at 4 h: 95.8 ± 1.4%
urine, n = 4, read-out: biodistribution, Urine (Avg % ID)
  dose excreted at 24 h: 82.5 ± 20.3%
